Measured values taken from US9057727B2, “Screening methods using G-protein coupled receptors and related compositions” (The General Hospital Corporation, priority 2007, dated 2015).
Ends that are not written are not given here. Peptide text beside a SMILES is read from it.

What was measured:
[1] = target: T1, human PTHR, G protein-coupled conformation (RG) (Homo sapiens, UniProt Q03431); assay: Competition binding to RG conformation of hPTHR (COS-7 membranes, GαsND, 125I-[Aib1,3,M]PTH(1-15) tracer); details: parent PTHrP(1-28)NH
T1 construct: expressed in transfected cells; host or cells: COS-7, transient (Fugene-6); membranes
T1 sequence (Q03431 27-593): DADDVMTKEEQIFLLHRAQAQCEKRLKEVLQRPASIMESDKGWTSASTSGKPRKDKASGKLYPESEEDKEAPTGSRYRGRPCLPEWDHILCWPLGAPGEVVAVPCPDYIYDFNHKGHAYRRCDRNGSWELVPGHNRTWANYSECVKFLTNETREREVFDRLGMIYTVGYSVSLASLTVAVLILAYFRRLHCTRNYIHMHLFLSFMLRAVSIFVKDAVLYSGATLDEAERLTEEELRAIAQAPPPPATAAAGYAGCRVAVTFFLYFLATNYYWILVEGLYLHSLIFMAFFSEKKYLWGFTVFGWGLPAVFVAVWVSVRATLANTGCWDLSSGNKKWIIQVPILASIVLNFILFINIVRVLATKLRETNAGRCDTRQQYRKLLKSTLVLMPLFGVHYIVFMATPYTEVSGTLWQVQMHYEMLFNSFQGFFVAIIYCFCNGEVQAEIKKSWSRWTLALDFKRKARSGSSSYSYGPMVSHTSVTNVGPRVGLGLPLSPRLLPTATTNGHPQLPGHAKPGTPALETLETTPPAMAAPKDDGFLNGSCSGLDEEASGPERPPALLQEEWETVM

[2] = system: LLCPK1-B64 cells or SaOS-2 cells; assay: cAMP screen of substituted PTHrP(1-28) analogs (% parent); type: cell-based; details: parent PTHrP(1-28)NH
Experimental: Alanine substitution at position 18, 22, 25 and 26 increased activity in at least one cell type. These positions were further substituted to various types of amino acids, and cAMP activity was analyzed in LLCPK1-B64 cells (FIG. 27C) or SaOS-2 cells (FIG. 27D). Cells were treated with analogs at 3×10^−9M in the presence of IBMX for 30 minutes at room temperature. Responses for each analog were normalized to the response for the parent (native) PTHrP(1-28) peptide. Alanine substitutions were A^15 to A^17 (SEQ ID NO:152-154), A^18 (SEQ ID NO:34), A^19 to A^21 (SEQ ID NO:155-157), A^22 (SEQ ID NO:39), A^23 to A^25 (SEQ ID NO:158-160), A^26 (SEQ ID NO:46), and A^27 to A^28 (SEQ ID NO:161-162). Substitutions at position 18 were A^18 (SEQ ID NO: 34), G^18 (SEQ ID NO:163), S^18 (SEQ ID NO:35), M^18 (SEQ ID NO:36), L^18 (SEQ ID NO:164), F^18 (SEQ ID NO:37), N^18 (SEQ ID NO:165), E^18 (SEQ ID NO:38), and K^18 (SEQ ID NO:166). Substitutions at position 22 were A^22 (SEQ ID NO:39), G^22 (SEQ ID NO:167), and S^22 to K^22 (SEQ ID NO:40-45). Substitutions at position 26 were A^26 (SEQ ID NO:46), G^26 (SEQ ID NO:168), S^26 (SEQ ID NO:47), L^26 (SEQ ID NO:169), N^26 (SEQ ID NO:48), W^26 to E^26 (SEQ ID NO:170-171), and K^26 to R^26 (SEQ ID NO:49-50). Substitutions at position 25 were G^25 to S^25 (SEQ ID NO:172-173), L^25 (SEQ ID NO:51), N^25 (SEQ ID NO:174), W^25 (SEQ ID NO:52), E^25 (SEQ ID NO:175), and K^25 to R^25 (SEQ ID NO:53-54). […]

[3] = target: T2, human PTHR, G protein-uncoupled conformation (R^0) (Homo sapiens, UniProt Q03431); assay: Competition binding to R0 conformation of hPTHR (COS-7 membranes, GTPγS, 125I-PTH(1-34) tracer); details: for screen human PIR R0 (% parent): parent PTHrP(1-28)NH; for R0:RG: Table 5, fold weaker affinity for R0 than RG
T2 construct: expressed in transfected cells; host or cells: COS-7, transient (Fugene-6)
T2 sequence (Q03431 27-593): T1 sequence (Q03431 27-593)
Experimental: Membranes were prepared from COS-7 cells transfected with the hPTHR alone. GTPγS ([…]) was added to the binding reactions so as to functionally uncouple receptor-heterotrimeric G protein complexes, thus enriching for the R^0 (and R) conformations, relative to RG.
Reactions contained a total membrane protein concentration of 20 to 100 μg/mL, and a total radioactivity concentration of approximately 150,000 cpm/ml. Unlabeled peptide ligands and/or GTPγS (Sigma-Aldrich Inc. St. Louis, Mo.) were added to the reactions as indicated.
Membranes, tracer radioligand, and various concentrations of unlabeled ligands and/or GTPγS were incubated in the wells for 90 minutes, following which, the reaction plates were processed by rapid vacuum filtration to separate bound from free radioligand, as described above. […] For both radioligands, the non-specific binding was determined in reactions containing a saturating concentration of the unlabeled analog of the radioligand. The specifically bound radioactivity was calculated as a percent of the radioactivity specifically bound in the absence of a competing ligand or GTPγS.
To assess the capacities of various unlabeled peptide ligands to bind to the G protein-uncoupled and G protein-coupled PTHR conformations (R^0 and RG, respectively), membranes were prepared from transiently transfected COS-7 cells and the following assay conditions.

Compound	screen human PIR RG (% parent) [1]	screen human PIR R0 (% parent) [3]	R0:RG [3]	screen cAMP (% parent) [2]
A18,N22,K26-PTHrP(1-28) (AVSEHQLLHDKGKSIQDARRRNFLHKLI-NH2) [A18, N22, K26-PTHrP(1-28)NH]	172 % parent	139 % parent	–	326 % parent
A18,22,26-PTHrP(1-28) (AVSEHQLLHDKGKSIQDARRRAFLHALI-NH2) [A18, 22, 26-PTHrP(1-28)NH]	167 % parent	160 % parent	–	343 % parent
A18,26,N22-PTHrP(1-28) (AVSEHQLLHDKGKSIQDARRRNFLHALI-NH2) [A18, 26, N22-PTHrP(1-28)NH]	161 % parent	136 % parent	–	265 % parent
A18,26,L22-PTHrP(1-28) (AVSEHQLLHDKGKSIQDARRRLFLHALI-NH2) [A18, 26, L22-PTHrP(1-28)NH]	163 % parent	133 % parent	–	252 % parent
CC[C@H](C)[C@H](NC(=O)[C@H](CCC(=O)O)NC(=O)[C@H](CO)NC(=O)[C@@H](NC(=O)[C@H](C)N)C(C)C)C(=O)N[C@@H](CCC(N)=O)C(=O)N[C@@H](CC(C)C)C(=O)N[C@@H](CCSC)C(=O)N[C@@H](Cc1c[nH]cn1)C(=O)N[C@@H](CC(N)=O)C(=O)N[C@@H](CC(C)C)C(=O)NCC(=O)N[C@@H](CCCCN)C(=O)N[C@@H](Cc1c[nH]cn1)C(=O)N[C@@H](CC(C)C)C(=O)N[C@@H](C)C(=O)N[C@@H](CO)C(=O)N[C@H](C(=O)N[C@@H](CCC(=O)O)C(=O)N[C@@H](CCCNC(=N)N)C(=O)N[C@@H](CCSC)C(=O)N[C@@H](CCC(N)=O)C(=O)N[C@@H](Cc1c[nH]c2ccccc12)C(=O)N[C@@H](CC(C)C)C(=O)N[C@@H](CCCNC(=N)N)C(=O)N[C@@H](CCCCN)C(=O)N[C@@H](CCCCN)C(=O)N[C@@H](CC(C)C)C(=O)N[C@@H](CCC(N)=O)C(=O)N[C@@H](CC(=O)O)C(=O)N[C@H](C(=O)N[C@@H](Cc1c[nH]cn1)C(=O)N[C@@H](CC(N)=O)C(=O)N[C@@H](Cc1ccccc1)C(N)=O)C(C)C)C(C)C [rPTH(1-34)NH2, reference compound]	–	–	7	–
CSCC[C@H](NC(=O)[C@H](CC(C)C)NC(=O)[C@H](CCC(N)=O)NC(=O)[C@H](Cc1c[nH]cn1)NC(=O)[C@H](CCC(=O)O)NC(=O)[C@H](CO)NC(=O)[C@@H](NC(=O)[C@H](C)N)C(C)C)C(=O)N[C@@H](Cc1c[nH]cn1)C(=O)N[C@@H](CC(N)=O)C(=O)N[C@@H](CC(C)C)C(=O)NCC(=O)N[C@@H](CCCCN)C(=O)N[C@@H](Cc1c[nH]cn1)C(=O)N[C@@H](CC(C)C)C(=O)N[C@@H](C)C(=O)N[C@@H](CO)C(=O)N[C@H](C(=O)N[C@@H](CCC(=O)O)C(=O)N[C@@H](CCCNC(=N)N)C(=O)N[C@@H](CCSC)C(=O)N[C@@H](CCC(N)=O)C(=O)N[C@@H](Cc1c[nH]c2ccccc12)C(=O)N[C@@H](CC(C)C)C(=O)N[C@@H](CCCNC(=N)N)C(=O)N[C@@H](CCCCN)C(=O)N[C@@H](CCCCN)C(=O)N[C@@H](CC(C)C)C(=O)N[C@@H](CCC(N)=O)C(=O)N[C@@H](CC(=O)O)C(=O)N[C@H](C(=O)N[C@@H](Cc1c[nH]cn1)C(=O)N[C@@H](CC(N)=O)C(=O)N[C@@H](Cc1ccccc1)C(N)=O)C(C)C)C(C)C [[His^5]rPTH(1-34)NH2] (H-AVSEHQLMHNLGKHLASVERMQWLRKKLQDVHNF-NH2; N-terminus assumed)	–	–	138	–
CSCC[C@H](NC(=O)[C@H](CC(C)C)NC(=O)[C@H](CCC(N)=O)NC(=O)[C@H](Cc1c[nH]cn1)NC(=O)[C@H](CCC(=O)O)NC(=O)[C@H](CO)NC(=O)[C@@H](NC(=O)[C@@H](N)CO)C(C)C)C(=O)N[C@@H](Cc1c[nH]cn1)C(=O)N[C@@H](CC(N)=O)C(=O)N[C@@H](CC(C)C)C(=O)NCC(=O)N[C@@H](CCCCN)C(=O)N[C@@H](Cc1c[nH]cn1)C(=O)N[C@@H](CC(C)C)C(=O)N[C@@H](CC(N)=O)C(=O)N[C@@H](CO)C(=O)N[C@@H](CCSC)C(=O)N[C@@H](CCC(=O)O)C(=O)N[C@@H](CCCNC(=N)N)C(=O)N[C@H](C(=O)N[C@@H](CCC(=O)O)C(=O)N[C@@H](Cc1c[nH]c2ccccc12)C(=O)N[C@@H](CC(C)C)C(=O)N[C@@H](CCCNC(=N)N)C(=O)N[C@@H](CCCCN)C(=O)N[C@@H](CCCCN)C(=O)N[C@@H](CC(C)C)C(=O)N[C@@H](CCC(N)=O)C(=O)N[C@@H](CC(=O)O)C(=O)N[C@H](C(=O)N[C@@H](Cc1c[nH]cn1)C(=O)N[C@@H](CC(N)=O)C(=O)N[C@@H](Cc1ccccc1)C(N)=O)C(C)C)C(C)C [[His^5]hPTH(1-34)NH2] (H-SVSEHQLMHNLGKHLNSMERVEWLRKKLQDVHNF-NH2; N-terminus assumed)	–	–	160	–

Continued, in another order:

screen human PIR RG (% parent) [1]	screen human PIR R0 (% parent) [3]	R0:RG [3]	Compound	screen cAMP (% parent) [2]
208 % parent	119.8 % parent	–	E18,K22,26-PTHrP(1-28) (AVSEHQLLHDKGKSIQDERRRKFLHKLI-NH2) [E18, K22, 26-PTHrP(1-28)NH]	374 % parent
147 % parent	84.4 % parent	–	E18,N22,K26-PTHrP(1-28) (AVSEHQLLHDKGKSIQDERRRNFLHKLI-NH2) [E18, N22, K26-PTHrP(1-28)NH]	236 % parent
116 % parent	18.8 % parent	–	E18,W22,A26-PTHrP(1-28) (AVSEHQLLHDKGKSIQDERRRWFLHALI-NH2) [E18, W22, A26-PTHrP(1-28)NH]	75 % parent
149 % parent	46.6 % parent	–	E18,W22,K26-PTHrP(1-28) (AVSEHQLLHDKGKSIQDERRRWFLHKLI-NH2) [E18, W22, K26-PTHrP(1-28)NH]	165 % parent
152 % parent	64.4 % parent	–	E18,L22,K26-PTHrP(1-28) (AVSEHQLLHDKGKSIQDERRRLFLHKLI-NH2) [E18, L22, K26-PTHrP(1-28)NH]	264 % parent
125 % parent	52.5 % parent	–	E18,L22,A26-PTHrP(1-28) (AVSEHQLLHDKGKSIQDERRRLFLHALI-NH2) [E18, L22, A26-PTHrP(1-28)NH]	139 % parent
192 % parent	106.1 % parent	–	E18,K22,A26-PTHrP(1-28) (AVSEHQLLHDKGKSIQDERRRKFLHALI-NH2) [E18, K22, A26-PTHrP(1-28)NH]	315 % parent
